Laboratory results from article PMC3298459.

How the values were obtained:
purified protein [1] = substrate: O=C1O[C@H](COP(=O)(O)O)[C@H](O)[C@@H]1O; assay: purified protein; assay type: biochemical, Halalkalibacterium halodurans; conditions: [Co/Co] form, 2.5 mM Bicine pH 8.3, 0.2 M NaCl, 1% DMSO
purified protein [2] = substrate: O=C1O[C@@H](COP(=O)(O)O)[C@H](O)[C@@H]1O; assay: purified protein; assay type: biochemical, Halalkalibacterium halodurans; conditions: [Co/Co] form, 2.5 mM Bicine pH 8.3, 0.2 M NaCl, 1% DMSO

B1: Bh0225 (Halalkalibacterium halodurans C-125) (protein)
chain: MSFIRTLRGDINPEELGFTYSHEHIVCRPDYWVQRQEGDLLLDDKEKSKRDVEDFKRHGGNSIVDATAVDYGRDVGAVKAISDELDVHIIGTAGFNKSFLWNAKIKEELKPIIGGQYDTFAEWIDGSTIHDLTEFVVREVEEGLEGTPWKAGQVKFGTGYNRISPLEEKTLRAVARAHHETKAPIHSHTEVGTMALEQIELLKSEGINLEHVSIGHMDRNPDPYYHEQIAKTGAFLSFDGIGKIKYAPESTRIHCILELVKKGYDQQILISGDTARKTYYKHYDYGLGLEYIIAKWIPRFISEANHRGFDGEALIHTFFVENPARCFAFKL
- Km (purified protein [1]): 240 ± 20 µM
- kcat (purified protein [1]): 24 ± 1 s⁻¹
- kcat/Km (purified protein [1]): 100000 ± 10000 M⁻¹ s⁻¹
- Km (purified protein [2]): 200 ± 20 µM
- kcat (purified protein [2]): 30 ± 1 s⁻¹
- kcat/Km (purified protein [2]): 150000 ± 15000 M⁻¹ s⁻¹
